# Experimental data published in the supplement of paper PMC10065799, “High-throughput profiling of sequence recognition by tyrosine kinases and SH2 domains using bacterial peptide display” (eLife, 2023).
# System: Fer (mouse)
# Experiment: phosphorylation enrichment, bacterial display (enrichment ratio); higher = better substrate or ligand; peptides without Tyr show the background
# 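Further: 11-residue human phosphosite peptides and single-mutation variants displayed on the E. coli surface, counted by deep sequencing, each peptide's frequency after selection divided by its frequency in the unselected input library; frequency after pTyr selection over input frequency; kinase dosed for 20-30% of maximal phosphorylation in three min.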
row,Sequence,phosphorylation enrichment
1,NTDETYCIDNK [TUBB3_Y200_E205K],0.729
2,IYLGAYDRFLP [SLC22A5_Y486_V481I],2.42
3,GTSLIYWILFT [G6PC3_Y214_T216I],0.55
4,MHDSNSVSKGS [PDGFRA_Y849_Y849S],0.392
5,KWRGQYDVAIK [BTK_Y425],0.429
6,VPTSKYRGGGG [HBA1_Y141_L137P],0.327
7,ADAHHYLCKEV [JAK2_Y382],0.488
8,YSPCDYQPCLA [TNS1_Y798_Y796C],2.44
9,LFFFSYLLKNH [PTEN_Y180_V175L_YF],0.672
10,CTTIHYNYMRN [TP53_Y234_C238R],0.543
11,GHLFAYNWISI [BEST1_Y227_D228N_YF],4.77
12,LRRFIYRPPDQ [OTOF_Y1231_R1236Q],0.445
13,KRAIGHYSATS [FAM120A_Y327_Y327H],0.356
14,CTTIHYNFRCN [TP53_Y234_M237R_YF],0.462
15,CATIHYNYMCN [TP53_Y234_T230A],0.573
16,RNNIEYVRDIG [MUSK_Y577],0.426
17,MARDISRASYY [ALK_Y1278_Y1278S],0.33

row,Sequence,phosphorylation enrichment
1,HEKRAYICAHP [ACAD9_Y611_L606H],0.593
2,LADKPYTFEDY [FXN_Y118],0.832
3,LLASRYDSPIN [ABLIM1_Y638],0.607
4,RLDPVYFVAPA [LAMC2_Y250],0.523
5,IGEGTYRQVYK [CDK13_Y716_G717R],0.449
6,EQLQSYQVEII [KRT33A_Y268_A270V],0.597
7,FKIFLYTLNDN [FN1_Y1975_YF],0.548
8,DENWFYTRAAF [RPS19_Y54_S59F],0.571
9,VRFMAYTDEIF [F8_Y450_T454I],0.65
10,AQPHTYEEPGR [EPHA8_Y616_E612Q],0.458
11,TSPALYRLDLD [TRIL_Y352_A347T],0.499
12,NTTIHYNFMCN [TP53_Y234_C229N_YF],0.557
13,GTATAYLCGVK [ALPL_Y117],0.463
14,QKMADYSNKLF [PDPR_Y104_YF],0.362
15,HDEPTYARSSK [PEAK1_Y616],0.57
16,IGRWVYPLTPE [EIF2B5_Y319_R315G],0.461

# Biological target: Jak2 (UniProt O60674)
# Sequence (O60674 whole entry, looked up): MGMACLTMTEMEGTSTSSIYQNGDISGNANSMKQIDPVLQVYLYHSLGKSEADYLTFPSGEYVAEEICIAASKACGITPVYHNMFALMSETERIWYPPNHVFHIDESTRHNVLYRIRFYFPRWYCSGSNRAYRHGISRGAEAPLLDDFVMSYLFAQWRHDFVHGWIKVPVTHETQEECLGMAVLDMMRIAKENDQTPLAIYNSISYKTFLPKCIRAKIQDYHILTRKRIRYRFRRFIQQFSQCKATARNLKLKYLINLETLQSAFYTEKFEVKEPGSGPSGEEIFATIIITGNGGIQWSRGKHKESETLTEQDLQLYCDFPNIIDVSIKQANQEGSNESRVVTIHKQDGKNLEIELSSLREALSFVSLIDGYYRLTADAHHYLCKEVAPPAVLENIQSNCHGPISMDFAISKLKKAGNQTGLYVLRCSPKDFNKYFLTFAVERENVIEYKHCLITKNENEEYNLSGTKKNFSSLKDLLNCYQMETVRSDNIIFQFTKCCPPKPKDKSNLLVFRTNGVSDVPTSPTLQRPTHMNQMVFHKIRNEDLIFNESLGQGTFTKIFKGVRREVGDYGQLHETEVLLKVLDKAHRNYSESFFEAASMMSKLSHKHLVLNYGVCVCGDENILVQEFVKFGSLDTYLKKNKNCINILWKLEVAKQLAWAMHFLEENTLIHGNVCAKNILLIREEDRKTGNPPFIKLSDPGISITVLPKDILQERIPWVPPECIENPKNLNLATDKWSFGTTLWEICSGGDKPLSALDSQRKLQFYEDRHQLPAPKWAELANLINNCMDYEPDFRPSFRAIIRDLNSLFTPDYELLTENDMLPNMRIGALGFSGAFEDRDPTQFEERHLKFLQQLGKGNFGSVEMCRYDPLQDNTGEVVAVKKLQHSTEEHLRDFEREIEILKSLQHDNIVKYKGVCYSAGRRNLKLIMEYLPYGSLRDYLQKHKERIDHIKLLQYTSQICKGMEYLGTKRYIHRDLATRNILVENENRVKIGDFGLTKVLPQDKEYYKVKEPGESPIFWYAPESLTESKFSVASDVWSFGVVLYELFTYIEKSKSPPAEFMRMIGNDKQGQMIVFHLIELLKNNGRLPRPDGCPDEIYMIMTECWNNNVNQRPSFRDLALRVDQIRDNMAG
# Experiment: as above
row,Sequence,phosphorylation enrichment
1,NTDETYCIDNK [TUBB3_Y200_E205K],1.37
2,IYLGAYDRFLP [SLC22A5_Y486_V481I],1.16
3,GTSLIYWILFT [G6PC3_Y214_T216I],1.59
4,MHDSNSVSKGS [PDGFRA_Y849_Y849S],0.687
5,KWRGQYDVAIK [BTK_Y425],0.543
6,VPTSKYRGGGG [HBA1_Y141_L137P],0.572
7,ADAHHYLCKEV [JAK2_Y382],0.837
8,YSPCDYQPCLA [TNS1_Y798_Y796C],1.06
9,LFFFSYLLKNH [PTEN_Y180_V175L_YF],2.28
10,CTTIHYNYMRN [TP53_Y234_C238R],0.673
11,GHLFAYNWISI [BEST1_Y227_D228N_YF],0.978
12,LRRFIYRPPDQ [OTOF_Y1231_R1236Q],0.502
13,KRAIGHYSATS [FAM120A_Y327_Y327H],0.439
14,CTTIHYNFRCN [TP53_Y234_M237R_YF],0.56
15,CATIHYNYMCN [TP53_Y234_T230A],0.717
16,RNNIEYVRDIG [MUSK_Y577],0.436
17,MARDISRASYY [ALK_Y1278_Y1278S],0.65

row,Sequence,phosphorylation enrichment
1,HEKRAYICAHP [ACAD9_Y611_L606H],1.3
2,LADKPYTFEDY [FXN_Y118],1.92
3,LLASRYDSPIN [ABLIM1_Y638],1.59
4,RLDPVYFVAPA [LAMC2_Y250],1.73
5,IGEGTYRQVYK [CDK13_Y716_G717R],0.655
6,EQLQSYQVEII [KRT33A_Y268_A270V],0.945
7,FKIFLYTLNDN [FN1_Y1975_YF],1.06
8,DENWFYTRAAF [RPS19_Y54_S59F],1.48
9,VRFMAYTDEIF [F8_Y450_T454I],1.07
10,AQPHTYEEPGR [EPHA8_Y616_E612Q],0.83
11,TSPALYRLDLD [TRIL_Y352_A347T],0.859
12,NTTIHYNFMCN [TP53_Y234_C229N_YF],1.02
13,GTATAYLCGVK [ALPL_Y117],0.89
14,QKMADYSNKLF [PDPR_Y104_YF],1.41
15,HDEPTYARSSK [PEAK1_Y616],1.01
16,IGRWVYPLTPE [EIF2B5_Y319_R315G],0.874

# Biological target: FGFR1 (UniProt P11362)
# Sequence (P11362 whole entry, looked up): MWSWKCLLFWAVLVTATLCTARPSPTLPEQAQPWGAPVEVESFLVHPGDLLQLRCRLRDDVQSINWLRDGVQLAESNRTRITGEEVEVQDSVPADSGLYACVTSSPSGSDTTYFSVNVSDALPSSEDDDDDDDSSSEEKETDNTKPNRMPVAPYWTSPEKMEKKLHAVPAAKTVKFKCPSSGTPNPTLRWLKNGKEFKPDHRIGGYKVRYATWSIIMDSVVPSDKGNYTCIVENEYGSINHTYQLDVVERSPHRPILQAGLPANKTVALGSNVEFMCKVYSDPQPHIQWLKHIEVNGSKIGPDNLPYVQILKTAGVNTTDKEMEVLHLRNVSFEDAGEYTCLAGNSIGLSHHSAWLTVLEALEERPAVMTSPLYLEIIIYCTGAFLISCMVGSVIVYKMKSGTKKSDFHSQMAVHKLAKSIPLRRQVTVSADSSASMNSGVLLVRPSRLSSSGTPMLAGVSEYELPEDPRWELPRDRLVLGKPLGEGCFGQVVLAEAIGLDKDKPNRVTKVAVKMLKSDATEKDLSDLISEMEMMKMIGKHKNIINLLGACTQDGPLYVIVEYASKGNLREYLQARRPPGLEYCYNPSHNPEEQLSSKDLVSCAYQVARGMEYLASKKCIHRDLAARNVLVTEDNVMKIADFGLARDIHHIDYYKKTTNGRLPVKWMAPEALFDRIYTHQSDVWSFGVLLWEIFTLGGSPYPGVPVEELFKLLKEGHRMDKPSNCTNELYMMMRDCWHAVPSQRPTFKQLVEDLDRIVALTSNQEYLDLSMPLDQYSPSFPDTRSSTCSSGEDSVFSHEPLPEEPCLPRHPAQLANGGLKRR
# Experiment: as above
row,Sequence,phosphorylation enrichment
1,NTDETYCIDNK [TUBB3_Y200_E205K],0.53
2,IYLGAYDRFLP [SLC22A5_Y486_V481I],0.918
3,GTSLIYWILFT [G6PC3_Y214_T216I],1.17
4,MHDSNSVSKGS [PDGFRA_Y849_Y849S],0.402
5,KWRGQYDVAIK [BTK_Y425],0.527
6,VPTSKYRGGGG [HBA1_Y141_L137P],0.392
7,ADAHHYLCKEV [JAK2_Y382],0.588
8,YSPCDYQPCLA [TNS1_Y798_Y796C],4.87
9,LFFFSYLLKNH [PTEN_Y180_V175L_YF],0.577
10,CTTIHYNYMRN [TP53_Y234_C238R],0.521
11,GHLFAYNWISI [BEST1_Y227_D228N_YF],1.34
12,LRRFIYRPPDQ [OTOF_Y1231_R1236Q],0.443
13,KRAIGHYSATS [FAM120A_Y327_Y327H],0.319
14,CTTIHYNFRCN [TP53_Y234_M237R_YF],0.487
15,CATIHYNYMCN [TP53_Y234_T230A],0.6
16,RNNIEYVRDIG [MUSK_Y577],0.413
17,MARDISRASYY [ALK_Y1278_Y1278S],0.464

row,Sequence,phosphorylation enrichment
1,HEKRAYICAHP [ACAD9_Y611_L606H],0.543
2,LADKPYTFEDY [FXN_Y118],0.955
3,LLASRYDSPIN [ABLIM1_Y638],1.12
4,RLDPVYFVAPA [LAMC2_Y250],6.89
5,IGEGTYRQVYK [CDK13_Y716_G717R],0.42
6,EQLQSYQVEII [KRT33A_Y268_A270V],0.531
7,FKIFLYTLNDN [FN1_Y1975_YF],0.523
8,DENWFYTRAAF [RPS19_Y54_S59F],0.586
9,VRFMAYTDEIF [F8_Y450_T454I],0.608
10,AQPHTYEEPGR [EPHA8_Y616_E612Q],0.459
11,TSPALYRLDLD [TRIL_Y352_A347T],0.529
12,NTTIHYNFMCN [TP53_Y234_C229N_YF],0.542
13,GTATAYLCGVK [ALPL_Y117],0.485
14,QKMADYSNKLF [PDPR_Y104_YF],0.741
15,HDEPTYARSSK [PEAK1_Y616],0.389
16,IGRWVYPLTPE [EIF2B5_Y319_R315G],0.564

# Biological target: Fyn (UniProt P06241)
# Sequence (P06241 whole entry, looked up): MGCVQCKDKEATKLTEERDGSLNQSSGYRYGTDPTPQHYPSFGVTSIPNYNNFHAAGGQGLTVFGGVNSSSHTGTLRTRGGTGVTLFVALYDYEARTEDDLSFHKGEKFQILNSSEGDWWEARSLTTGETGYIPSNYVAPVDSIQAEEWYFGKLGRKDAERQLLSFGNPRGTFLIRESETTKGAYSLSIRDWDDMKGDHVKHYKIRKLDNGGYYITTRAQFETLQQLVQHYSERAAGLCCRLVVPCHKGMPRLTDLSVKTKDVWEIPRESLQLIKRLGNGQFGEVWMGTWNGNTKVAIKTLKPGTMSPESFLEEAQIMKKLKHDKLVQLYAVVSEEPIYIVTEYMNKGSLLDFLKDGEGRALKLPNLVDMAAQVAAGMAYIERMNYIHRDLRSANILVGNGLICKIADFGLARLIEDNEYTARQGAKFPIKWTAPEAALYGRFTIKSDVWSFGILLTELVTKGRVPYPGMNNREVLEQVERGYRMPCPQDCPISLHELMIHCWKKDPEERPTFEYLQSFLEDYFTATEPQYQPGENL
# Experiment: as above
row,Sequence,phosphorylation enrichment
1,NTDETYCIDNK [TUBB3_Y200_E205K],0.781
2,IYLGAYDRFLP [SLC22A5_Y486_V481I],5
3,GTSLIYWILFT [G6PC3_Y214_T216I],2.42
4,MHDSNSVSKGS [PDGFRA_Y849_Y849S],0.381
5,KWRGQYDVAIK [BTK_Y425],0.491
6,VPTSKYRGGGG [HBA1_Y141_L137P],0.452
7,ADAHHYLCKEV [JAK2_Y382],0.485
8,YSPCDYQPCLA [TNS1_Y798_Y796C],1.14
9,LFFFSYLLKNH [PTEN_Y180_V175L_YF],0.346
10,CTTIHYNYMRN [TP53_Y234_C238R],0.52
11,GHLFAYNWISI [BEST1_Y227_D228N_YF],0.488
12,LRRFIYRPPDQ [OTOF_Y1231_R1236Q],0.479
13,KRAIGHYSATS [FAM120A_Y327_Y327H],0.346
14,CTTIHYNFRCN [TP53_Y234_M237R_YF],0.471
15,CATIHYNYMCN [TP53_Y234_T230A],0.464
16,RNNIEYVRDIG [MUSK_Y577],0.369
17,MARDISRASYY [ALK_Y1278_Y1278S],0.475

row,Sequence,phosphorylation enrichment
1,HEKRAYICAHP [ACAD9_Y611_L606H],0.447
2,LADKPYTFEDY [FXN_Y118],3.63
3,LLASRYDSPIN [ABLIM1_Y638],1.18
4,RLDPVYFVAPA [LAMC2_Y250],11.5
5,IGEGTYRQVYK [CDK13_Y716_G717R],0.368
6,EQLQSYQVEII [KRT33A_Y268_A270V],0.579
7,FKIFLYTLNDN [FN1_Y1975_YF],0.584
8,DENWFYTRAAF [RPS19_Y54_S59F],0.47
9,VRFMAYTDEIF [F8_Y450_T454I],0.434
10,AQPHTYEEPGR [EPHA8_Y616_E612Q],0.481
11,TSPALYRLDLD [TRIL_Y352_A347T],0.74
12,NTTIHYNFMCN [TP53_Y234_C229N_YF],0.495
13,GTATAYLCGVK [ALPL_Y117],0.472
14,QKMADYSNKLF [PDPR_Y104_YF],0.683
15,HDEPTYARSSK [PEAK1_Y616],0.519
16,IGRWVYPLTPE [EIF2B5_Y319_R315G],0.49
